To fix the notation:
B1: CPEB3 Ribozyme (parent)
chain: UAACAGGGGGCCACAGCAGAAGCGUUCACGUCGCAGCCCCUGUCAGAUUCUGGUGAAUCUGCGAAUUCUGCUGUAUAUCUC

Data on 167 variants can be found in the RNAGym collection of RNA variant scans (doi:10.1093/nar/gkz1192).

Variants of B1 are the subject of this series. The experiment in a line: self-cleavage, relative activity (ratio to wild type); higher = more cleavage; in vitro, sequencing. The essentials: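 Relative activity compares each variant's cleaved/total read fraction with that of the unmutated ribozyme. To get these fractions, barcoded CPEB3 ribozyme libraries from rounds of error-prone PCR were transcribed with T7 RNA polymerase for 5 hours at 37°C and then given 15 min of DNase I treatment before EDTA was added. The RNAs were reverse transcribed with template switching and sequenced on Illumina, and DNA sequencing linked barcodes to variants. A minimum of 5 reads applied, and three batches were averaged.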
A5C A45U: the self-cleavage was determined as 0.59.

A5C A45G: the self-cleavage was 0.7.

As for A5C U72A, the self-cleavage came to 0.98.

A5C U72C: the self-cleavage amounted to 1.09.

On to A5G C81A, for which the self-cleavage was 1.1.

As for A5G A18G, the self-cleavage was found to be 0.5.

In the case of A5G A18C, the self-cleavage amounted to 0.48.

As for A5G A18U, the self-cleavage worked out at 0.33.

With C4U U41A, the self-cleavage amounted to 0.48.

For C4U U41C, the self-cleavage was determined as 1.07.

C4U A57G: the self-cleavage is 1.05.

Regarding C4G G55U, the self-cleavage was 1.12.

On to C4G A13C, for which the self-cleavage stood at 1.17.

With C4G A13G, the self-cleavage was found to be 1.08.

In the case of A5C G55U, the self-cleavage was determined as 1.13.

For C4U C29U, the self-cleavage was found to be 0.72.

Turning to C4U U60A, the self-cleavage is 0.95.

For the variant C4U U60C, the self-cleavage came to 0.75.

Regarding C4U U60G, the self-cleavage worked out at 0.86.

Take C4U U78A: the self-cleavage came to 0.9.

As for C4U U78C, the self-cleavage worked out at 1.14.

Consider C4A U60A, for which the self-cleavage was found to be 0.89.

Regarding A5G C32A, the self-cleavage amounted to 0.28.

A5G C32U: the self-cleavage amounted to 0.48.

For the variant A5G C32G, the self-cleavage is 0.39.

With C4U A21G, the self-cleavage was 0.89.

Turning to A5C A13G, the self-cleavage turned out to be 1.07.

With A5C A13U, the self-cleavage stood at 1.22.

For the variant C4U U43C, the self-cleavage was 0.93.

For C4U U49C, the self-cleavage is 0.69.

Consider C4G U51C, for which the self-cleavage is 1.12.

Consider C4G U51A, for which the self-cleavage is 1.15.

With C4G U60C, the self-cleavage is 0.68.

For the variant C4U U54A, the self-cleavage was found to be 1.18.

With C4U U54C, the self-cleavage is 1.15.

In the case of A5C U48C, the self-cleavage stood at 0.94.

A3U U74A: the self-cleavage was 1.26.

Turning to C4U C40U, the self-cleavage stood at 0.86.

Consider A5C A64G, for which the self-cleavage came to 1.

A5C A64U: the self-cleavage came out at 1.

In the case of C4U A5G, the self-cleavage was 0.84.

As to C4A U76A, the self-cleavage is 1.2.

In the case of C4U A15G, the self-cleavage turned out to be 1.17.

Regarding C4U A15U, the self-cleavage worked out at 0.86.

Consider A5C U43C, for which the self-cleavage is 0.57.

For A5C U43A, the self-cleavage turned out to be 1.13.

For the variant A5C U43G, the self-cleavage was 0.38.

With A5C G30A, the self-cleavage stood at 0.19.

With A5C G30U, the self-cleavage stood at 0.24.

As to C4A A47G, the self-cleavage worked out at 1.12.

With A5G G33A, the self-cleavage came out at 0.24.

As to A5G G33C, the self-cleavage amounted to 0.38.

Consider A5G G33U, for which the self-cleavage came to 0.43.

In the case of C4U G33A, the self-cleavage came to 0.37.

Consider C4A U80C, for which the self-cleavage came out at 1.11.

Take C4A U80A: the self-cleavage turned out to be 1.06.

For the variant A5G A65G, the self-cleavage was 0.39.

In the case of A5G A65U, the self-cleavage was determined as 0.19.

In the case of A5G A65C, the self-cleavage turned out to be 0.25.

With C4U U72C, the self-cleavage was 1.12.

Regarding C4U U72A, the self-cleavage was found to be 1.01.

Consider A5C G9A, for which the self-cleavage amounted to 0.41.

A5C G9U: the self-cleavage amounted to 0.52.

For the variant A5C C32G, the self-cleavage is 0.

On to C4U U25C, for which the self-cleavage turned out to be 0.2.

As to C4U U25G, the self-cleavage was 0.45.

Regarding C4U U25A, the self-cleavage turned out to be 0.31.

On to A5C A56G, for which the self-cleavage was found to be 0.75.

As for A5C A65G, the self-cleavage came out at 0.44.

For the variant C4A U26C, the self-cleavage worked out at 1.21.

As for C4A A45U, the self-cleavage was determined as 1.16.

Turning to A5G C44U, the self-cleavage was found to be 0.43.

For the variant C4A C62U, the self-cleavage stood at 0.23.

On to A5G C68A, for which the self-cleavage was determined as 0.46.

Consider A5G C59U, for which the self-cleavage worked out at 0.65.

Regarding A5G C59A, the self-cleavage is 0.2.

Consider A5G C11G, for which the self-cleavage came to 0.5.

Consider C4U A64U, for which the self-cleavage was 0.7.

For the variant C4G G36U, the self-cleavage amounted to 0.28.

In the case of A5G G9A, the self-cleavage was determined as 0.39.

C4U U69C: the self-cleavage came to 0.86.

A5G G30U: the self-cleavage came to 0.11.

Take A5G G30A: the self-cleavage amounted to 0.51.

Take A5C C68G: the self-cleavage is 0.23.

In the case of C4A U66C, the self-cleavage was determined as 0.24.

Take C4A U72A: the self-cleavage is 0.42.

As to C4A U72C, the self-cleavage stood at 1.22.

For A5C A35U, the self-cleavage is 0.54.

As for A5C A35G, the self-cleavage was 1.18.

For A5C G8C, the self-cleavage was 0.36.

As to A5C G8A, the self-cleavage amounted to 0.46.

As to A5C A75G, the self-cleavage was found to be 0.69.

Take A5C U78C: the self-cleavage was 0.89.

On to A5C C71U, for which the self-cleavage came to 0.57.

Turning to C4G, the self-cleavage was 1.1.

C4A: the self-cleavage is 1.22.

For C4U, the self-cleavage stood at 1.17.

As to A5G A45U, the self-cleavage is 0.36.

Regarding A5G A45G, the self-cleavage stood at 0.63.

Take A5G A45C: the self-cleavage is 0.42.

Turning to C4G U67C, the self-cleavage was determined as 0.29.

On to C4A A18U, for which the self-cleavage came to 0.45.

Regarding C4A A18G, the self-cleavage amounted to 1.04.

As for C4G U66A, the self-cleavage turned out to be 0.79.

Regarding C4G U41A, the self-cleavage came to 0.5.

Consider C4G U41C, for which the self-cleavage amounted to 1.1.

For the variant A5C C50A, the self-cleavage was 0.8.

As to A5G C39A, the self-cleavage was 0.39.

A5G C39U: the self-cleavage stood at 0.67.

Turning to A5C U26C, the self-cleavage amounted to 0.58.

In the case of A5C U26A, the self-cleavage is 1.04.

Regarding C4A U25C, the self-cleavage turned out to be 0.52.

As for C4U G7C, the self-cleavage is 0.13.

Consider C4U A56G, for which the self-cleavage came out at 1.06.

With A5G A13C, the self-cleavage was 0.76.

Take A5G A13U: the self-cleavage stood at 0.98.

Consider A5G A13G, for which the self-cleavage is 0.56.

As for C4A C59A, the self-cleavage was determined as 0.33.

With C4A G33U, the self-cleavage was 0.12.

In the case of A5G A64U, the self-cleavage was 0.35.

Regarding A5G A64G, the self-cleavage stood at 0.58.

For C4G A77G, the self-cleavage came out at 1.19.

As to C4U U31A, the self-cleavage amounted to 0.82.

Take C4U U31C: the self-cleavage was found to be 1.11.

Consider A5G G16A, for which the self-cleavage was 0.57.

On to A5G G16U, for which the self-cleavage was determined as 0.54.

As for A5G A77G, the self-cleavage was 0.71.

For the variant A5G A77U, the self-cleavage is 0.78.

Consider C4A U41A, for which the self-cleavage was 0.41.

For A5C U66C, the self-cleavage was 0.54.

Take C4G G8C: the self-cleavage was determined as 0.66.

For C4U A75G, the self-cleavage was found to be 1.15.

For A5C U25C, the self-cleavage is 0.15.

Consider A3U U80A, for which the self-cleavage stood at 1.23.

Regarding A3U U80C, the self-cleavage amounted to 0.85.

As to A5C U60G, the self-cleavage worked out at 0.67.

On to A5C U60C, for which the self-cleavage was determined as 0.64.

For the variant A5C U60A, the self-cleavage worked out at 0.64.

As for C4U U66C, the self-cleavage was found to be 0.59.

Turning to C4G A21G, the self-cleavage was 1.14.

Take A5C C29U: the self-cleavage amounted to 0.42.

In the case of C4U G10A, the self-cleavage worked out at 0.63.

C4U G10U: the self-cleavage was 0.25.

Turning to C4U A13C, the self-cleavage came out at 1.21.

Take A5G A57U: the self-cleavage stood at 1.04.

Take A5G A57G: the self-cleavage worked out at 0.64.

For A5G A57C, the self-cleavage is 0.28.

Take C4U C37U: the self-cleavage amounted to 0.91.

Turning to C4U C37G, the self-cleavage amounted to 0.9.

On to C4U G63U, for which the self-cleavage was determined as 1.23.

Consider C4A C79G, for which the self-cleavage stood at 1.25.

As for C4U G8A, the self-cleavage stood at 0.28.

As for C4U G8U, the self-cleavage is 0.38.

Regarding A5G A15U, the self-cleavage came to 0.61.

As for A5G A15C, the self-cleavage turned out to be 0.83.

For A5G A15G, the self-cleavage was determined as 0.6.

As for C4U C12U, the self-cleavage stood at 1.21.

As for A5G C37U, the self-cleavage came to 0.63.

Consider C4A G9A, for which the self-cleavage is 0.64.

With A5G C14U, the self-cleavage amounted to 0.8.

Turning to A5C C34G, the self-cleavage is 0.41.

For A5C C34U, the self-cleavage turned out to be 0.47.

As to C4A U58A, the self-cleavage turned out to be 0.67.

On to C4A U58C, for which the self-cleavage worked out at 0.76.

C4A G6A: the self-cleavage is 0.43.

For the variant C4U U48C, the self-cleavage is 0.99.

Turning to C4U U80C, the self-cleavage stood at 1.19.
